Measured values: article PMC5100913 (PLoS ONE, 2016)

Target: T1, Aha1 (yeast, UniProt Q12449 1-350)
T1 sequence (looked up): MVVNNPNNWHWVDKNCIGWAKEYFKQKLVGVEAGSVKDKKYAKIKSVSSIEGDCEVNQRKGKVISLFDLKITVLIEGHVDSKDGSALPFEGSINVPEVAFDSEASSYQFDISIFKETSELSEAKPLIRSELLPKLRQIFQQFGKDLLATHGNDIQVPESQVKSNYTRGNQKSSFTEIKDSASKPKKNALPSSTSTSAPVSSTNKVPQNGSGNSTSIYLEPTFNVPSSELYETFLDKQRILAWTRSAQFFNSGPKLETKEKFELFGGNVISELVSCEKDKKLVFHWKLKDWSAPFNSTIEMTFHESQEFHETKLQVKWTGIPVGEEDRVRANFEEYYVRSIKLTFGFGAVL
Experiment: cell-based or functional assay

B1: yeast Hsp90 (natural protein)
chain: not shown
  stimulation of the chaperone's ATPase activity by Aha1 (NADH coupled enzymatic assay, hsp90:Aha1 1:2): 10 fold
